According to patent US5744166A, “Drug delivery compositions” (Danbiosyst UK Limited, priority 1989, dated 1998):

Columns and labels:
[1] = Effect of pH on insulin/DEAE-dextran solutions (pH and appearance); format: physicochemical
Method: Solutions containing DEAE-Dextran 1% w/v and Na-Insulin 167 IU/ml were prepared, separately and combined, in phosphate buffer (pH 7.3) and their pH measured using a Gallenkamp pH stick. The appearance of each solution was noted. The effect of addition of 1M sodium hydroxide solution (NaOH) or 0.1M hydrochloric acid (HCl) was determined.

[2] = Intranasal absorption of insulin solutions in anaesthetised rats: blood glucose; format: in vivo, rat (male Wistar); details: phosphate buffer pH 7.3; for Blood Glucose Levels: 120 minutes after intranasal administration, 16.7 IU/kg insulin, level at administration about 3.5 to 4.0
Method: A rat in vivo experimental model, modified from that originally described by Hirai et al., Int. […] Male Wistar rats (Bantin and Kingman) of approximate weight 200-250 g, fasted overnight for about 20 hours, are anesthetized by i.p. injection of 80 mg/kg pentobarbitone sodium (60 mg/ml Sagatal™, May and Baker) with further i.p. injections of 0.05 ml when necessary to maintain a suitable level of anaesthesia. The rats are tracheotomized, the esophagus sealed and the carotid artery and jugular vein cannulated.
The DEAE-dextran used in these experiments has a molecular weight of 500,000.
This will give the same end solutions. […] An insulin solution containing the Laureth-9 enhancer system was prepared in a similar way.
A volume of 20 μl was administered.
Blood samples of 0.2 ml were collected in Fluoride oxalate tubes from the carotid artery at 10 and 5 min. prior to the insulin administration and at 5, 15, 30, 45, 60, 90, 120, 180, 240 and 300 min. post-administration. The samples were kept for a short time on crushed ice until analyzed on a Yellow Springs 23 AM glucose analyser by the glucose oxidase method.

Insulin alone: semisynthetic human Na-insulin, 167 IU/ml in phosphate buffer
pH at which solution became turbid on addition of acid ([1]; 0.1M HCl): 6.65
pH at which solution cleared / was clear on addition of acid ([1]; 0.1M HCl): 4.14
appearance on addition of 1.0M NaOH ([1]; 1.0M NaOH): no effect on solution appearance which remained clear
pH of solution ([1]; DEAE-dextran 1% w/v and/or Na-insulin 167 IU/ml in phosphate buffer (pH 7.3)): 7.38
appearance of solution ([1]; as prepared in phosphate buffer, no acid or base added): clear
Blood Glucose Levels [2]: ~5.1 mmol/L
Blood Glucose Levels ([2]; listed as insulin solution alone): about 5 mmol/l
effect on blood glucose level (in words) ([2]; intranasal): does not significantly lower the blood glucose level
